Data taken from patent US9394371.

B1: AP1-15B4 (antibody, V domains shown)
VH: EVHLVESGGDLVKPGGSLKLSCAASGFAFSDFAMSWVRQTPEKRLEWVAIIKSDDSYTYYPDSVRDRFTISRDNARNTLYLQMTSLRSEDTALYYCTKIYDAYFYAMDYWGQGTSVTVSS
VL: DIVRTQSPLSLSVSLGDQASISCRSSQSLLHSNGNTYLHWYLQKPGQSPKLLIYKVSNRFSGVPDRFSGSGSGTDFTLKISILEAEDLGIYFCSQSTHFPTFGGGTKLEIK
B2: AP4-29E10 (antibody, V domains shown)
VH: EVQLQQSGPELEKPGASVKISCKASGHSFTGYNMNWVKQSNDKSLEWIGNIAPYYGVTAYNQKFKGKATLTGDKSSSTAYMQLKSLASEDSAVYYCVLDTSGYASWGQGTLVTVSA
VL: DIVMTQATASLTVSLGQRATISCRASKSVSTSGYSYMHWYQQKPGQPPKLLIYLASNLESGVPARFSGSGSGTDFTLNIHPVEEEDAATYYCQHSREVPYTFGGGTKLELK
B3: AP4-24H11 (antibody, V domains shown)
VH: EVKPQESGPGLVKPSQSLSLTCTVTGYSITSNYAWNWIRQFPGNKLEWMGFISSYGTTTYNPSLKSRFSITRDTSKNQFFLQLHSVTIEDTGTYFCTREGDYWGQGTTLTVSS
VL: DIVMTQATLSLPVSLGDQASISCRSSQRLVPSNGNIYLHWFLQKPGQSPKLLIYKLSSRFSGVPDRFSGSGSGTDFTLKISRVESEDLGIYFCSQTTHVPYTFGGGTKLEIK

Tests used:
[1] = biological target: T1, AIP-1 (S. aureus I native cyclic signaling peptide) (Staphylococcus aureus); assay: competition ELISA on AP1-BSA
[2] = biological target: T2, AIP-4 (S. aureus IV native cyclic signaling peptide) (Staphylococcus aureus); assay: competition ELISA on AP4-BSA
[3] = biological target: T2, AIP-4 (S. aureus IV native cyclic …); assay: competition ELISA on AP4-BSA, tested 5 different times
[4] = biological target: T1, AIP-1 (S. aureus I native cyclic …); assay: competition ELISA on AP4-BSA
[5] = biological target: T2, AIP-4 (S. aureus IV native cyclic …); assay: cell-based or functional assay
[6] = biological target: T2, AIP-4 (S. aureus IV native cyclic …); assay: competition ELISA on AP4-BSA; remark: listed apart in the source

Binder	Kd [1]	Kd [2]	Kd [3]	Kd [4]	Real-Time PCR fold-change of eta mRNA in RN4850 [5]	Real-Time PCR fold-change of hla mRNA in RN4850 [5]	Real-Time PCR fold-change of rnaIII mRNA in RN4850 [5]	Real-Time PCR fold-change of spa mRNA in RN4850 [5]	rnaIII transcriptional level in S. aureus RN4850 during stationary growth phase (RT-PCR) [5]	Kd [6]
B1	800 nM									
B2		24 nM	2 to 110 nM	3000 nM						
B3		90 nM		5000 nM	-8.1 fold	-5.2 fold	-77 fold	5.7 fold	> 50 fold	98 nM
